Test results published in PMC4605309.
Read-outs that look alike come from different tables or passages of the source.

B1: Smad7 promoter DNA (dsDNA)
DNA 1: CCAGCCAGCCAGCCGGCGCCAC
DNA 2: GTGGCGCCGGCTGGCTGGCTGG
B2: Id2 promoter DNA (dsDNA)
DNA 1: CCTGGCGCCAGAGAGTCTGC
DNA 2: GCAGACTCTCTGGCGCCAGG
B3: Bambi enhancer DNA (dsDNA)
DNA 1: AGTGTCGTCTCGTTGGCGCCGGGTGC
DNA 2: GCACCCGGCGCCAACGAGACGACACT

Key:
Smad5 MH1 [1] = target: T1, Smad5 MH1 (Mus musculus, UniProt P97454 1-143); assay: EMSA
Smad5 MH1 [2] = target: T1, Smad5 MH1; assay: EMSA; remark: listed apart in the source

T1 sequence (P97454 1-143): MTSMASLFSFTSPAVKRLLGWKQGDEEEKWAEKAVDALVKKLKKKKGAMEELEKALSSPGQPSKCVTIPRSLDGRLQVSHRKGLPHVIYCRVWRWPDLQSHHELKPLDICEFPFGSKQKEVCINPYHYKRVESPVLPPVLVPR

| Binder | binding result (Smad5 MH1 [1]) | binding result (Smad5 MH1 [2]) |
| --- | --- | --- |
| B1 | binds |  |
| B2 |  | binds |
| B3 | binds |  |
